In the nanobody polyreactivity screen of Harvey et al. (2022):

Assay: yeast display, Sf9 membrane polyspecificity reagent, FACS + sequencing; frameworks hold sequencing errors
Procedure, shortened: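 Using colony PCR, genes from sorted yeast display clones were amplified, then sequenced on MiSeq at 2 × 250 and filtered by CDR length. The clones had been stained with 10% biotinylated, detergent-solubilized Sf9 membrane reagent for 1 hour at 4 °C and sorted by FACS into low and high (top ~1%) gates on anti-HA and streptavidin fluorescence. Polyreactivity labels come from the gate of origin.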

Sequence	polyreactivity (PSR sort gate)
QVQLVESGGGLVQAGGSLRLSCAASGSILYIYAMGWYSQAPGKERELVASINSGGSTNYADSVKGRFTISRDNAKNTVYLQMNSLKPEDTAVYYCNADTIPDGEDRYDYWGQGTQVTVSS	low polyreactivity
QVQLVESGGGLVQAGGSLRLSCAASGSILYPYAMGWYRQAPGKERELVAAISRGGSTNYADSVKGRFTISRDNAKNTVYLQMNSLKPEDTAVYYCATAYTRFSQRYEYYVIYWQNDYWGQGTQVTVSS	low polyreactivity
QVQLVESGGGLVQAGGSLRLSCAASGSILYRYTMGWYIQAPGKERELVAAITKRGGRTYYADSVKGRFTISRDTAKNTVYLQMNSLKREDTAVYYCAAKYYTGGSFEMYYWGQGTQVTVSS	high polyreactivity
QVQLVESGGGLVQAGGSLRLSCAASGSILYRYTMGWYRQAPGIERELVAAITKRGGRTYYADSVKGRFTISRDNAKNTVYLQTNSLKPEDTAVYYCAAKYYTGGSFEMYYWGQGTQVTVSS	high polyreactivity
QVQLVESGGGLVQAGGSLRLSCAASGSILYTNAMGWYRQAPGKERELVAAITTSGASTYYADSVKGRFTISRDNAKNTVYLQMNSLKPEDTAVYYCAATDYFPYDTYYAHDYWGQGTQVTVSS	high polyreactivity
QVQLVESGGGLVQAGGSLRLSCAASGSILYVNAMGWYRQATGKERELVAAITRTGGSTYYADSVKGRFTISRDNAKNTVYLQMNSLKPEDTAVYYCNAASSLPGYDYWGQGTQVTVSS	high polyreactivity
QVQLVESGGGLVQAGGSLRLSCAASGSILYVYALAWYRQAPGKERALVAAIYSGASTYYADSVKGRFTISPDNAKNTVYFQMNSLIPEETAVYYCAAYVFFQTYFSYYVEGDYWGQGTQVTVSS	low polyreactivity
QVQLVESGGGLVQAGGSLRLSCAASGSILYVYAMGRYRQAPGKERELVAAISGSGGSTYYADSVKGRFTISRDNAKNTVYLQMNSLKPEDTAVYYCAADYATVTWRGIAYDYWGLGTQVTVSS	low polyreactivity
QVQLVESGGGLVQAGGSLRLSCAASGSILYWYAMGWYRQAPGKERELVAAITSSGDSTDYADSVKGRFTISRDNAKKTVYLQMNILKPEDSAVYYCNVQPVYADHFTEFDYCGQGTQVTVSS	low polyreactivity
QVQLVESGGGLVQAGGSLRLSCAASGSILYYAMGWYRQAPGKERELVATITRGGSTYYADSVKGRFTISRDNAKNTVYLQMNSLKPDDTAVYYCAARRAVRVGYYWHDISSYDYWGQGTQVTVPS	low polyreactivity
QVQLVESGGGLVQAGGSLRLSCAASGSINYYAMGWYRQAPVKERELVAAITRSGGGTYYADSVKGRFTISRDNAMNTVYLQMNSLIPEDTAVYYCAAARYSRAQPNWTYNYWGQGTQVTVSS	high polyreactivity
QVQLVESGGGLVQAGGSLRLSCAASGSISAIYTMGWYRQATGKERELVAAITGSAGSTYADSVKGRFTISRDNAKNTVYLQMNSLKPEDTAVYYCNAQPGDDVKVKLDYWGQGSQVTVSS	low polyreactivity
QVQLVESGGGLVQAGGSLRLSCAASGSISAVNTMGWYRQAPGKERELVATISYSTASTYYADSVKGRFTISRDNAKITVYLQMNCLKPEDTAVYFCAADAYFDTWYDYWGQGTQVTVSS	low polyreactivity
QVQLVESGGGLVQAGGSLRLSCAASGSISETNAMGWYRQAPGKERELVAAISGSGGSTYADSVKGRFTISRDNAKNTVYLQMNSLKPEDTAVYYCARDRYYTREWYWYRHDHWGQGTQVTVSS	low polyreactivity
QVQLVESGGGLVQAGGSLRLSCAASGSISGLYAMGWYRQATGKERELVAAITFRDGTTSYADSVKGRFTISRDNAKNTVYLQMNSLKPEDTAVYYCAAVDRDSNSSVPTLDHWGQGTQVTVSS	low polyreactivity
QVQLVESGGGLVQAGGSLRLSCAASGSISGRYAMGWSRQAPGKEMELVAAISWIGGSTYYADSVKGRFTISRDNAKNTVYLQMISLKPEDTAVYYCYVTIDTRTDPLLVVLYGYDYWGQGTLVTVSS	low polyreactivity

Sequence	polyreactivity (PSR sort gate)
QVQLVESGGGLVQAGGSLRLSCAASGSISGWYAMGWYRQAPGKERELVADISSIAGSTYYADSVKGRFTISRDNAKNTVYLQMNSLKPEDTAVYYCAADRGFYYEYDYWGQGTQVTVSS	low polyreactivity
QVQLVESGGGLVQAGGSLRLSCAASGSISGYYAMGWYRQAPGKERELVASIRYTGARTYYADSVKGRFTISRDNAKNTVYLQMNSLKPEDTAVYYCNARVDWGWPGYEYDYWGQGTQVTVSS	low polyreactivity
QVQLVESGGGLVQAGGSLRLSCAASGSISKINAMGWYRQAPWKERELVAAINTGDSTYYADSVKGRFTISRDNAKNTVYLLMNSLKPEDTAVYYCAAECSPTGYDYWGQGTQVTVSS	low polyreactivity
QVQLVESGGGLVQAGGSLRLSCAASGSISPVYAMGWYRQAPGKERELVAAYADSVKGRFTISRDNAKNTVYLQMNSLIPEDTAVYYCNVVETSQELGWQAFDYWGQGTQVTVSS	low polyreactivity
QVQLVESGGGLVQAGGSLRLSCAASGSISTPYTMGWYRQAPGKERELVAAISWIGDTTSYADSVKGRFTISRDNAKNTVYLQMHSLKPEETAVYYCNAEHRGYDYWGQGTQVTVSS	low polyreactivity
QVQLVESGGGLVQAGGSLRLSCAASGSISTVYAMGWYRQAPGKEMELVAAISWSGGSTYYADSVKGRFTISRDNAKNTVYLQMNSLKPEDTAVYYCAAEGYLVGSRWGPRYGDYWGQGTQVTVSS	high polyreactivity
QVQLVESGGGLVQAGGSLRLSCAASGSISVANAMGWYRQAPGKERELVAAITDSGDDTYYADSVKGRFTISRDTAKNTVYLQMNSLKPEDTAVYYCAVEAWSVPPYDYWGQGTQVTVSS	low polyreactivity
QVQLVESGGGLVQAGGSLRLSCAASGSISVFYAMGWYRQAPGKEREFVAAISWRGGRTYYEDSVKARFTISRDNANNTVYLQMNSLKPEDTAVYYCAKDIVRGRSSRYDYWGQGTQVTVSS	high polyreactivity
QVQLVESGGGLVQAGGSLRLSCAASGSISVLNAMGWYRQAPGKERELVAAISRSGTRTYYADSVKGRFTLSRDNAKNTVYLQMNSLKPEDTAVYYCNALHRARLFGHYPYESWGQGTQVTVSS	high polyreactivity
QVQLVESGGGLVQAGGSLRLSCAASGSISVRNVMGWYRQAPGKERELVATIRRTGGSTSYADSVKGRFTISRDNAKNTVYLQLNSLKPEDTAVYDCADVRYTTYRRYEYWGQGTQVTVSS	low polyreactivity
QVQLVESGGGLVQAGGSLRLSCAASGSISVVNMGWYRQAPGKERELVASITSSGSTTYADSVKGRFTISRDNAKNTVYLQMNSLKPEDTAGYYCAASSTGYGGSTYYYWGQGTQVTVSS	low polyreactivity
QVQLVESGGGLVQAGGSLRLSCAASGSISYRYDMGWYRQSPGKERELVATIRSGGSTNYADSVKGRFTISRDNAKNTVYLQMNSLKPEDTAVYYCAARLYARKKLHFSADSDYWGQGSQVTVSS	low polyreactivity
QVQLVESGGGLVQAGGSLRLSCAASGSIVGIYVMGWYRQAPGKERELVAGISPRGGSTYYADSVKGRFTISRDYAKNTVYLQMNSLKPEDTAVYYCAAVPASFRYPMYYLGQGTQVTVSS	low polyreactivity
QVQLVESGGGLVQAGGSLRLSCAASGSIVKHYAMGWYRQAPGKERKLVATITRSGRTNYADSVKGRFTISRDNAKNTVYLQMNSLKPEDTAVYYCNTVRGGQSPHPVRYGYWGQGTQVTVSS	high polyreactivity
QVQLVESGGGLVQAGGSLRLSCAASGSIVRYNTMGWYRQAPGKERELVASIRIGGSTYYADSVKGRFTISRDNAKNTVYLQMNSLKAEDTAVYYCAVRPYRSAGGSVTRGAYYYWGQGTQVTVSS	high polyreactivity
